# Results: patent US20140030266A1
# What was measured:
# [1] = biological target: MIF receptor CD74 ectodomain (CD74 73-232, sCD74) (UniProt P04233); assay: competition binding assay on sCD74, biotinylated human MIF as competitor
# [2] = biological target: MIF receptor CD74 ectodomain (CD74 73-232, sCD74) (UniProt P04233); assay: SPR (BIAcore 2000), sCD74 immobilized
# [3] = biological target: MIF receptor CD74 ectodomain (CD74 73-232, sCD74) (UniProt P04233); assay: SPR (BIAcore 2000), sCD74 immobilized, ligand in solution
# [4] = biological target: MIF receptor CD74 ectodomain (CD74 73-232, sCD74) (UniProt P04233); assay: competition binding assay on sCD74 with biotinylated human MIF as the competed ligand [panel A]
substance,measurement,setting,value
"human D-dopachrome tautomerase (D-DT), recombinant native-sequence protein (from UniProt P30046 2-118) (ligand)",maximal effect on MIF binding compared with MIF,[1],50%
same,affinity relative to MIF (% lower than MIF),[2],60
same,fold higher binding rate than MIF,[2],3 fold
same,koff,[2],0.00066 s⁻¹
same,kon,[2],120000 M⁻¹ s⁻¹
same,Kd,[3],5.42 nM
same,IC50 (read off the curve),[4],300 nM
